The target of experiment [1] is T1, Recombinant human MMR (R&D Systems) (human, UniProt P22897 19-1383).
T1 construct: Bought from R&D Systems; also called hMMR; recombinant hMMR
T1 sequence: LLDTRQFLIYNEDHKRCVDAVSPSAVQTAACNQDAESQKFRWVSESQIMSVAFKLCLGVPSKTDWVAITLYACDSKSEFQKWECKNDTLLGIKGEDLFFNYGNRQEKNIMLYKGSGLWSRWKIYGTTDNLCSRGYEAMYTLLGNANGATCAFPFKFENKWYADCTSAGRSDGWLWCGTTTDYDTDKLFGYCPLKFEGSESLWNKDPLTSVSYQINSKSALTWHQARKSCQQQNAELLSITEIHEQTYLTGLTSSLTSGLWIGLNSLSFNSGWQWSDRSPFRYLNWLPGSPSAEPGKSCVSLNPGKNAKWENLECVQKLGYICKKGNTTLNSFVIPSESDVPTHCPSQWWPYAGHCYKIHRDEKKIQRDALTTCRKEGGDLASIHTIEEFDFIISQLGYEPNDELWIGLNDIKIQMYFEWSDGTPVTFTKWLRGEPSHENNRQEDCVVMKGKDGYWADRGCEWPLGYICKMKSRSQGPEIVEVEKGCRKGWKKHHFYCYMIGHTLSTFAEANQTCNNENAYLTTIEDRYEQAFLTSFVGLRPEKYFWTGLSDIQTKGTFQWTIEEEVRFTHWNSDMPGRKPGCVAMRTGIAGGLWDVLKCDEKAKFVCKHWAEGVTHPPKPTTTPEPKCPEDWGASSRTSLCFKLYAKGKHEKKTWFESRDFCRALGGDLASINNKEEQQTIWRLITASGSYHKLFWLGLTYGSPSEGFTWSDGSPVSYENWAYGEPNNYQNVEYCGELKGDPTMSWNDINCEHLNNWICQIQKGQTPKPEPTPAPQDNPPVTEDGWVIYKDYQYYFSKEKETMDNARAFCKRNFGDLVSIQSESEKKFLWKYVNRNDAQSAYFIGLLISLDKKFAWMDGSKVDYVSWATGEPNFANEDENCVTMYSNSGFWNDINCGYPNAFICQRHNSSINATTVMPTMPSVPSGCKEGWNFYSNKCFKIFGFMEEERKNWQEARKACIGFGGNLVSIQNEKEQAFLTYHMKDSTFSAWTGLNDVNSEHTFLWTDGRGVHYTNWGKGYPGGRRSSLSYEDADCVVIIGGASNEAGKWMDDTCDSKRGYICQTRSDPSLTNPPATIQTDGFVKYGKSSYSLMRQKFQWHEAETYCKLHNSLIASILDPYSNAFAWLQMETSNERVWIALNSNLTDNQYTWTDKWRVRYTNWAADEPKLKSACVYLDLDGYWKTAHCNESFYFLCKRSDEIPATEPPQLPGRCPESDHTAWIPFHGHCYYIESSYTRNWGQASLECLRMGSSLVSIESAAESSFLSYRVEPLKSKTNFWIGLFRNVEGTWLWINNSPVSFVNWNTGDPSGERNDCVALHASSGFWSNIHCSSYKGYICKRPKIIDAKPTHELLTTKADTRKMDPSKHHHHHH
Briefly: SPR, BIAcore T100, human MMR on CM5 chip. As to the method: (§1) Affinity analysis was performed using a BIAcore T100 (GE Healthcare) with HEPES-buffered saline running buffer (10 mM HEPES with 0.15 M NaCl, 3.4 mM EDTA and 0.005% surfactant P20 at pH 7.4). MRR was immobilized on a CM5 chip in acetate buffer 50 mM (pH 5.0), resulting in 2100 RU MMR coated on the chip. A second channel on the same chip was activated/deactivated in a similar way and served as a negative control. The MMR Nanobodies were used as analytes in 11 different concentrations, ranging from 1 to 2000 nM, at a flow rate of […]. Glycine-HCl 50 mM (pH 2.0) was used for elution. The kinetic and equilibrium parameters (kd, ka and KD) values were calculated from the combined sensogram of all concentrations using BIAcore T100 evaluation software 2.02 (GE Healthcare).
(§2) The binding characteristics and affinity of selected Nbs towards the recombinant hMMR and recombinant mMMR antigen was examined in further detail using surface plasmon resonance. A combined sensogram was recorded for each Nb (example for NbhmMMRm3.49 in FIG. 7) and the kinetic and equilibrium parameters (kd, ka and KD) values were calculated (Table 8 and Table 9). Most but not all results on binding to mouse or human rMMR obtained via this SPR analysis are in agreement with the results obtained by PE-ELISA.
(In general: SPR reads the build-up and loss of mass on a sensor chip optically.)

For experiment [2], the target named is T2, Recombinant mouse MMR (R&D Systems) (mouse, UniProt Q61830 20-1388).
T2 construct: Bought from R&D Systems; Immobilised on CM5 chip (SPR) or coated on plates (ELISA); also called mMMR; recombinant mMMR
T2 sequence: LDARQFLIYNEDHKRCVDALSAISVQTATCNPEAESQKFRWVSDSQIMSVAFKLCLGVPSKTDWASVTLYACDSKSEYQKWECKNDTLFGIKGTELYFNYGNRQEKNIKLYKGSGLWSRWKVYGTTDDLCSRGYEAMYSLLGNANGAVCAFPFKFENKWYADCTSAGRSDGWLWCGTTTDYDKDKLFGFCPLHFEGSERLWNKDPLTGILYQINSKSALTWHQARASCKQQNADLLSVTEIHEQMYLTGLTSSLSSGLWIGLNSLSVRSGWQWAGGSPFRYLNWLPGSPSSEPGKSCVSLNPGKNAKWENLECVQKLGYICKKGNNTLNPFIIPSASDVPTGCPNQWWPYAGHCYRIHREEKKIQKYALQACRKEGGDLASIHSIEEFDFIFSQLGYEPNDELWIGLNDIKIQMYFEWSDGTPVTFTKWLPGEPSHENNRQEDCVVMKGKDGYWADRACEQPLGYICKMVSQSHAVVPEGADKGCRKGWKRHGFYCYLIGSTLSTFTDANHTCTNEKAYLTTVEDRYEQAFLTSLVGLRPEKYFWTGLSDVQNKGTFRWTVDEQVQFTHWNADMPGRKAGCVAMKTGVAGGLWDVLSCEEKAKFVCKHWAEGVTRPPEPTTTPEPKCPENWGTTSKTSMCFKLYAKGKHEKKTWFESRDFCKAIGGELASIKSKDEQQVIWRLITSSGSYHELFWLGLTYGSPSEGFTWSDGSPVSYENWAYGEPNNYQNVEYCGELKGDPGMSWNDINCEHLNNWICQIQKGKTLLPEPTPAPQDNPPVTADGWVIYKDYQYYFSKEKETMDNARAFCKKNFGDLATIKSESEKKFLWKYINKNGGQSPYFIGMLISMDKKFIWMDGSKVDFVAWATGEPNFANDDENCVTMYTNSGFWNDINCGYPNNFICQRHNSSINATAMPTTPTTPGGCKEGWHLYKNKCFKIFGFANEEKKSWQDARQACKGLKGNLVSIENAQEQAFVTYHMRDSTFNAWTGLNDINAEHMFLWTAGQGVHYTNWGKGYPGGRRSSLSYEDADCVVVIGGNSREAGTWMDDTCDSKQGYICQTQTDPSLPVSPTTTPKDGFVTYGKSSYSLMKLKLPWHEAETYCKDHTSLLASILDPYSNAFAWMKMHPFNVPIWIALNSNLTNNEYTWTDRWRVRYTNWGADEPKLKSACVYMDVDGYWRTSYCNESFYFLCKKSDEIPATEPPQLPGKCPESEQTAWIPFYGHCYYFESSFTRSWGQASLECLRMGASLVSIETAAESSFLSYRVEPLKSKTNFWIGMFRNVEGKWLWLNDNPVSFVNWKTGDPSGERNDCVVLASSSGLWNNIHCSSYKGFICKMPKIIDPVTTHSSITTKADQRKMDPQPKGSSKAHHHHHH
As to the kind of experiment: SPR, BIAcore T100, mouse MMR on CM5 chip. As to the method:
as §1, §2

For experiment [3], the target named is T2, Recombinant mouse MMR (R&D Systems). Briefly: SPR, BIAcore T100, MMR on CM5 chip, Nanobody as analyte. As to the method:
as §1
Anti-CD206 (anti-MMR) Nanobodies (Nbs), which are the smallest available antigen-binding entities, were created in order to target MMR-positive cells in vivo. Nanobodies were raised against the recombinant extracellular portion of MMR, as described in the Materials and Methods (see also Table 1). The binding characteristics of the monovalent anti-MMR Nanobodies were compared using surface Plasmon resonance (SPR) measurements (Table 2).

For experiment [4] the target is unchanged. As to the kind of experiment: SPR, immobilised recombinant MMR. As to the method: as §1
Bivalent Nanobodies were constructed by linking two anti-MMR Nanobody 1 entities using (G₄S)₃ ([…]; SEQ ID NO:151), llama IgG2 hinge ([…]; SEQ ID NO:152) or human IgA hinge ([…] SEQ ID NO:153) linkers. […] As a negative control Nanobody in all experiments, we consistently used α-BCII10 Nb, which is a binder of the β-lactamase BCII enzyme of Bacillus cereus.

By koff is commonly meant a measure of how fast the partners let go of each other. A word on the kon: it is a measure of how fast the partners come together.

B1: Anti-MMR Nanobody clone 1 (VHH)
VHH: QVQLQESGGGLVQPGGSLRLSCAASGNIFSINAIGWYRQAPGKQRELVATITLSGSTNYADSVKGRFSISRDNAKNTVYLQMNSLKPEDTAVYYCNANTYSDSDVYGYWGQGTQVTVSS
notes: 99mTc-labelled at the His tail in the in vivo experiments; also called Anti-MMR Nb1; Nb MMR cl1
On to B1, for which the binding result in experiment [1] is reported as “no binding (tested: analyte 1 to 2000 nM)”. Besides, in experiment [2], the koff stood at 0.0133 s⁻¹ and the kon is 576000 M⁻¹ s⁻¹. Moreover, in experiment [3], the koff was determined as 0.0133 s⁻¹ and the kon was 576000 M⁻¹ s⁻¹.

B2: Bivalent anti-MMR Nanobody 1 with llama IgG2 hinge linker (VHH)
chain: QVQLQESGGGLVQPGGSLRLSCAASGNIFSINAIGWYRQAPGKQRELVATITLSGSTNYADSVKGRFSISRDNAKNTVYLQMNSLKPEDTAVYYCNANTYSDSDVYGYWGQGTQVTVSSAHHSEDPSSKAPKAPMAQVQLQESGGGLVQPGGSLRLSCAASGNIFSINAIGWYRQAPGKQRELVATITLSGSTNYADSVKGRFSISRDNAKNTVYLQMNSLKPEDTAVYYCNANTYSDSDVYGYWGQGTQVTVSSHHHHHH
notes: Bivalent tandem of two clone 1 VHH domains in one chain; also called biv MMR linker 2 g2c; MMR biv g2c
Consider B2, for which the “fold increase in KD (so in the source) compared to the monovalent clone 1 Nanobody” value (“fold increase in KD (so in the source)” below) in experiment [4] stood at 3 fold. In addition, in experiment [3], the koff was 0.00411 s⁻¹ and the kon is 1.02e+06 M⁻¹ s⁻¹.

B3: Bivalent anti-MMR Nanobody 1 with (Gly4Ser)3 linker (VHH)
chain: QVQLQESGGGLVQPGGSLRLSCAASGNIFSINAIGWYRQAPGKQRELVATITLSGSTNYADSVKGRFSISRDNAKNTVYLQMNSLKPEDTAVYYCNANTYSDSDVYGYWGQGTQVTVSSGGGGSGGGGSGGGGSQVQLQESGGGLVQPGGSLRLSCAASGNIFSINAIGWYRQAPGKQRELVATITLSGSTNYADSVKGRFSISRDNAKNTVYLQMNSLKPEDTAVYYCNANTYSDSDVYGYWGQGTQVTVSSHHHHHH
notes: Bivalent tandem of two clone 1 VHH domains in one chain; also called biv MMR linker 1 GS; MMR biv (Gly4Ser)3
Turning to B3, in experiment [4], the “fold increase in KD (so in the source)” value amounted to 3 fold. Also, in experiment [3], the koff came to 0.0044 s⁻¹ and the kon came to 1.04e+06 M⁻¹ s⁻¹.

B4: Anti-MMR Nanobody clone 3 (VHH)
VHH: QVQLQESGGGLVQAGGSLRLSCAASGRTFSRDAMGWFRQAPGKEREFVAGISWSGGSTYYADSVKGRFTISRDGAKNTVNLQMNSLKPEDTAVYYCAASSIYGSAVVDGLYDYWGQGTQVTVSS
notes: Monovalent, His-tagged; also called Anti-MMR Nb3; Nb clone 3
Take B4: in experiment [1], the binding result is “no binding (tested: analyte 1 to 2000 nM)”. Moreover, in experiment [2], the koff came out at 0.0186 s⁻¹ and the kon came out at 97300 M⁻¹ s⁻¹. In experiment [3], the dissociation rate constant (koff) worked out at 0.0186 s⁻¹ and the kon is 97300 M⁻¹ s⁻¹.

B5: Bivalent anti-MMR Nanobody 1 with human IgA hinge linker (VHH)
chain: QVQLQESGGGLVQPGGSLRLSCAASGNIFSINAIGWYRQAPGKQRELVATITLSGSTNYADSVKGRFSISRDNAKNTVYLQMNSLKPEDTAVYYCNANTYSDSDVYGYWGQGTQVTVSSSPSTPPTPSPSTPPASQVQLQESGGGLVQPGGSLRLSCAASGNIFSINAIGWYRQAPGKQRELVATITLSGSTNYADSVKGRFSISRDNAKNTVYLQMNSLKPEDTAVYYCNANTYSDSDVYGYWGQGTQVTVSSHHHHHH
notes: Bivalent tandem of two clone 1 VHH domains in one chain; also called biv MMR linker 3 IgA; MMR biv IgA
Regarding B5, the “fold increase in KD (so in the source)” value in experiment [4] worked out at 3 fold. Further, in experiment [3], the koff turned out to be 0.00428 s⁻¹ and the kon stood at 913000 M⁻¹ s⁻¹.

(Values after patent publication US20160024213A1 (VIB VZW, published 2016).)
